In patent publication US20090068637A1:

How the values were obtained:
[1] = target: HA of H5N1 virus strain A7 (avian influenza virus H5N1); assay: cell-based or functional assay
[2] = target: HA of H5N1 virus strain F2 (avian influenza virus H5N1); assay: cell-based or functional assay
[3] = target: HA of H5N1 virus strain B7 (avian influenza virus H5N1); assay: cell-based or functional assay
[4] = target: HA of H5N1 virus strain A2 (avian influenza virus H5N1); assay: cell-based or functional assay
[5] = target: HA of H5N1 virus strain C3 (avian influenza virus H5N1); assay: cell-based or functional assay
[6] = target: HA of H5N1 virus strain H2 (avian influenza virus H5N1); assay: cell-based or functional assay
[7] = target: HA of H5N1 virus strain B3 (avian influenza virus H5N1); assay: cell-based or functional assay
[8] = target: HA of H5N1 virus strain A8 (avian influenza virus H5N1); assay: cell-based or functional assay
[9] = target: HA of H5N1 virus strain B4 (avian influenza virus H5N1); assay: cell-based or functional assay
[10] = target: HA of H5N1 virus strain B2 (avian influenza virus H5N1); assay: cell-based or functional assay
[11] = target: HA of H5N1 virus strain D2 (avian influenza virus H5N1); assay: cell-based or functional assay
[12] = target: HA of H5N1 virus strain A3 (avian influenza virus H5N1); assay: cell-based or functional assay
[13] = target: HA of H5N1 virus strain A5 (avian influenza virus H5N1); assay: cell-based or functional assay
[14] = target: HA of H5N1 virus strain D1 (avian influenza virus H5N1); assay: cell-based or functional assay
[15] = target: HA of H5N1 virus strain B8 (avian influenza virus H5N1); assay: cell-based or functional assay
[16] = target: HA of H5N1 virus strain G1 (avian influenza virus H5N1); assay: cell-based or functional assay
[17] = target: HA of H5N1 virus strain H1 (avian influenza virus H5N1); assay: cell-based or functional assay
[18] = target: HA of H5N1 virus strain F3 (avian influenza virus H5N1); assay: cell-based or functional assay
[19] = target: HA of H5N1 virus strain B1 (avian influenza virus H5N1); assay: cell-based or functional assay
[20] = target: HA of H5N1 virus strain E1 (avian influenza virus H5N1); assay: cell-based or functional assay
[21] = target: HA of H5N1 virus strain B5 (avian influenza virus H5N1); assay: cell-based or functional assay
[22] = target: HA of H5N1 virus strain C2 (avian influenza virus H5N1); assay: cell-based or functional assay
[23] = target: HA of H5N1 virus strain E2 (avian influenza virus H5N1); assay: cell-based or functional assay
[24] = target: HA of H5N1 virus strain B6 (avian influenza virus H5N1); assay: cell-based or functional assay
[25] = target: HA of H5N1 virus strain A1 (avian influenza virus H5N1); assay: cell-based or functional assay
[26] = target: HA of H5N1 virus strain A6 (avian influenza virus H5N1); assay: cell-based or functional assay
[27] = target: hemagglutinin of subtype H5 avian influenza virus (strain not stated) (avian influenza virus subtype H5)
[28] = target: HA of H5N1 virus strain A4 (avian influenza virus H5N1); assay: cell-based or functional assay
[29] = target: HA of H5N1 virus strain C1 (avian influenza virus H5N1); assay: cell-based or functional assay
[30] = target: H5 virus strains (thirty-four strains of H5N1 viruses); assay: cell-based or functional assay
[31] = target: 7aa peptide 8H5A (HGMLPVY); assay: phage ELISA: mAb coated at 5 ug/ml, phage 1:1000, anti-M13/HRP
[32] = target: 7aa peptide 8H5E (NSGPWLT); assay: as above
[33] = target: HA of virus strain CK/HK/213/03 (avian influenza virus); assay: cell-based or functional assay
[34] = target: HA of virus strain CP Heron/HK/18/05 (avian influenza virus); assay: cell-based or functional assay
[35] = target: HA of virus strain CK/IDN/2A/04 (avian influenza virus); assay: cell-based or functional assay
[36] = target: HA of virus strain DK/IDN/MS/04 (avian influenza virus); assay: cell-based or functional assay
[37] = target: HA of virus strain Oriental Magpie Robin/HK/366/2006 (avian influenza virus); assay: cell-based or functional assay
[38] = target: HA of virus strain BhGs/QH/15/05 (avian influenza virus); assay: cell-based or functional assay
[39] = target: non-H5 viruses (14 strains; H1~H13, Chicken NDV); assay: cell-based or functional assay

B1: 8H5 single chain antibody (scFv)
scFv: QVQLQQSGAELMKPGASVKISCKATGYTFSNYWIEWIKQRPGHGLEWIGEILPGSDRTNYNGKFKGKATFTADTSSNTAHMQLSSLTSEDSAVYYCANRYDGYYFGLDYWGQGTSVAVSSAGGGGSEIVLTQSPAIMSASLGEKVTMSCRASSSVNFVYWYQQRSDASPKLLIYYSSNLAPGVPPRFSGSGSGNSYSLTISGLEGEDAATYYCQHFTSSPYTFGGGTNLEIKR
Q: What does the source list for B1?
A: HI titer (n) (n (dilution 2^n)) [1]: 3; HI titer (n) (n (dilution 2^n)) [2]: 0; HI titer (n) (n (dilution 2^n)) [3]: 4; HI titer (n) (n (dilution 2^n)) [4]: 4.5; HI titer (n) (n (dilution 2^n)) [5]: 0; HI titer (n) (n (dilution 2^n)) [6]: 0; HI titer (n) (n (dilution 2^n)) [7]: 5; HI titer (n) (n (dilution 2^n)) [8]: 2.5; HI titer (n) (n (dilution 2^n)) [9]: 5; HI titer (n) (n (dilution 2^n)) [10]: 0; HI titer (n) (n (dilution 2^n)) [11]: 2; HI titer (n) (n (dilution 2^n)) [12]: 3.5; HI titer (n) (n (dilution 2^n)) [13]: 4; HI titer (n) (n (dilution 2^n)) [14]: 2.5; HI titer (n) (n (dilution 2^n)) [15]: 3; HI titer (n) (n (dilution 2^n)) [16]: 0; HI titer (n) (n (dilution 2^n)) [17]: 0; HI titer (n) (n (dilution 2^n)) [18]: 0; HI titer (n) (n (dilution 2^n)) [19]: 4; HI titer (n) (n (dilution 2^n)) [20]: 0; HI titer (n) (n (dilution 2^n)) [21]: 0; HI titer (n) (n (dilution 2^n)) [22]: 1; HI titer (n) (n (dilution 2^n)) [23]: 0; HI titer (n) (n (dilution 2^n)) [24]: 3.5; HI titer (n) (n (dilution 2^n)) [25]: 3.5; HI titer (n) (n (dilution 2^n)) [26]: 3; average value of the testing wells (ELISA reading) [27]: 0.597

B2: 4D1 chimeric antibody (antibody, V domains shown)
VH: QVQLQQPGAELVKPGASVNLSCKASGYTFTSYWMHWVKQRPGQGLEWIGEIDPSDSFTTYNQNFKDRATLTVDKSSSTAYMQLRSLTSEDSAVYYCARGGPGDFRYAMDYWGQGTSVTVSS
VL: DILMTQSPSSMSVSLGDTVSITCHASQGISSNIGWLQQKPGKSFKGLIYHGTNLEDGVPSRFSGSGSGADYSLTISSLESEDFADYYCVQYVQFPYTFGGGTKLEIKR
Q: Which HI test result [1] does the source give for B2 here?
A: 4 n

Q: And the HI test result [2]?
A: 1 n

Q: And the HI test result [3]?
A: 7 n

Q: And the HI test result [4]?
A: 5.5 n

Q: And the HI test result [5]?
A: 4 n

Q: What about the HI test result [6] of the same binder?
A: 1 n

Q: What about the HI test result [8] of the same binder?
A: 5.5 n

Q: What about the HI test result [9] of the same binder?
A: 5.5 n

Q: And the HI test result [12]?
A: 5.5 n

Q: What about the HI test result [14] of the same binder?
A: 5 n

Q: What about the HI test result [15] of the same binder?
A: 4 n

Q: And the HI test result [16]?
A: 1 n

Q: What about the HI test result [28] of the same binder?
A: 6 n

Q: And the HI test result [17]?
A: 1 n

Q: What about the HI test result [18] of the same binder?
A: 1 n

Q: And the HI test result [19]?
A: > 8 n

Q: And the HI test result [20]?
A: 5.5 n

Q: What about the HI test result [22] of the same binder?
A: 6 n

Q: What about the HI test result [23] of the same binder?
A: 7.5 n

Q: What about the HI test result [24] of the same binder?
A: 6.5 n

Q: What about the HI test result [25] of the same binder?
A: 5 n

Q: And the HI test result [26]?
A: 4.5 n

Q: And the HI test result [29]?
A: 7.5 n

B3: 10F7 chimeric antibody (antibody, V domains shown)
VH: QVQLQQPGAELVKPGASVKLSCKASGYTFTSYWMHWVKQRPGQGLEWIGEIDPSDSYTNYNQKFKGKATLTVDKSSSTAYMQLSSLTSEDSAVYYCARGGTGDFHYAMDYWGQGTSVTVSS
VL: DILMTQSPSSMSVSLGDTVSITCHASQGISSNIGWLQQKPGKSFKGLIYHGTNLEDGVPSRFSGSGSGADYSLTISSLESEDFADYYCVQYVQFPYTFGGGTKLEIKR
Q: Which results are given for B3?
A: HI test result [1]: 5.5 n; HI test result [2]: 2.5 n; HI test result [3]: 7 n; HI test result [4]: 7 n; HI test result [5]: 2.5 n; HI test result [6]: 8 n; HI test result [8]: 5.5 n; HI test result [9]: 6 n; HI test result [12]: 6.5 n; HI test result [14]: 2.5 n; HI test result [15]: 4.5 n; HI test result [16]: 6.5 n; HI test result [28]: 7 n; HI test result [17]: 5.5 n; HI test result [18]: > 8 n; HI test result [19]: > 8 n; HI test result [20]: 6 n; HI test result [22]: 6 n; HI test result [23]: > 8 n; HI test result [24]: 6 n; HI test result [25]: 6.5 n; HI test result [26]: 5 n; HI test result [29]: > 8 n

B4: monoclonal antibody 8H5 (antibody, V domains shown)
VH: QVQLQQSGAELMKPGASVKISCKATGYTFSNYWIEWIKQRPGHGLEWIGEILPGSDRTNYNGKFKGKATFTADTSSNTAHMQLSSLTSEDSAVYYCANRYDGYYFGLDYWGQGTSVAVSSA
VL: EIVLTQSPAIMSASLGEKVTMSCRASSSVNFVYWYQQRSDASPKLLIYYSSNLAPGVPPRFSGSGSGNSYSLTISGLEGEDAATYYCQHFTSSPYTFGGGTNLEIKR
Q: Which HI assay: positive number/total virus number (of 34 strains) [30] does the source give for B4 here?
A: 34

Q: What about the ELISA reading [31] of the same binder?
A: 0.559

Q: And the ELISA reading [32]?
A: 0.25

B5: 10F7 single chain antibody (scFv)
scFv: QVQLQQPGAELVKPGASVKLSCKASGYTFTSYWMHWVKQRPGQGLEWIGEIDPSDSYTNYNQKFKGKATLTVDKSSSTAYMQLSSLTSEDSAVYYCARGGTGDFHYAMDYWGQGTSVTVSSGGGGSDILMTQSPSSMSVSLGDTVSITCHASQGISSNIGWLQQKPGKSFKGLIYHGTNLEDGVPSRFSGSGSGADYSLTISSLESEDFADYYCVQYVQFPYTFGGGTKLEIKR
Q: Which HI titer (n) (n (dilution 2^n)) [1] does the source give for B5 here?
A: 6.5

Q: And the HI titer (n) (n (dilution 2^n)) [2]?
A: 0

Q: And the HI titer (n) (n (dilution 2^n)) [3]?
A: 7

Q: And the HI titer (n) (n (dilution 2^n)) [4]?
A: > 8

Q: And the HI titer (n) (n (dilution 2^n)) [5]?
A: 1

Q: And the HI titer (n) (n (dilution 2^n)) [6]?
A: 0

Q: What about the HI titer (n) (n (dilution 2^n)) [7] of the same binder?
A: > 8

Q: What about the HI titer (n) (n (dilution 2^n)) [8] of the same binder?
A: 6

Q: What about the HI titer (n) (n (dilution 2^n)) [9] of the same binder?
A: > 8

Q: And the neutralization test: dilution of 10F7 scFv (fold dilution) [33]?
A: < 1

Q: And the neutralization test: dilution of 10F7 scFv (fold dilution) [34]?
A: 8

Q: And the HI titer (n) (n (dilution 2^n)) [10]?
A: 0

Q: And the HI titer (n) (n (dilution 2^n)) [11]?
A: 2.5

Q: What about the HI titer (n) (n (dilution 2^n)) [12] of the same binder?
A: > 8

Q: And the HI titer (n) (n (dilution 2^n)) [13]?
A: > 8

Q: What about the HI titer (n) (n (dilution 2^n)) [14] of the same binder?
A: 2.5

Q: And the neutralization test: dilution of 10F7 scFv (fold dilution) [35]?
A: 32

Q: What about the neutralization test: dilution of 10F7 scFv (fold dilution) [36] of the same binder?
A: 16

Q: What about the HI titer (n) (n (dilution 2^n)) [15] of the same binder?
A: 7

Q: And the HI titer (n) (n (dilution 2^n)) [16]?
A: 0

Q: And the neutralization test: dilution of 10F7 scFv (fold dilution) [37]?
A: < 1

Q: And the HI titer (n) (n (dilution 2^n)) [17]?
A: < 1

Q: What about the HI titer (n) (n (dilution 2^n)) [18] of the same binder?
A: 0

Q: What about the HI titer (n) (n (dilution 2^n)) [19] of the same binder?
A: 7

Q: And the HI titer (n) (n (dilution 2^n)) [20]?
A: 0

Q: And the HI titer (n) (n (dilution 2^n)) [21]?
A: 0

Q: What about the neutralization test: dilution of 10F7 scFv (fold dilution) [38] of the same binder?
A: 16

Q: What about the HI titer (n) (n (dilution 2^n)) [22] of the same binder?
A: 2

Q: And the HI titer (n) (n (dilution 2^n)) [23]?
A: 0

Q: What about the HI titer (n) (n (dilution 2^n)) [24] of the same binder?
A: 7

Q: What about the HI titer (n) (n (dilution 2^n)) [25] of the same binder?
A: > 8

Q: What about the HI titer (n) (n (dilution 2^n)) [26] of the same binder?
A: 7.5

B6: monoclonal antibody 2F2 (antibody, V domains shown)
VH: QVQLKESGPGLVAPSQRLSITCTVSGFSLTGYGVHWIRQSPGKGLEWLGMIWAEGRTDYNSVLKSRLSINKDNSRSQVFLEMNSLQTDDTARYYCAREVITTEAWYFDVWGQGTSVTES
VL: DIVMTQSPATLSVTPGDRVSLSCRASQSISDYLYWYQQKSHESPRLLIKYASQSISGIPSRFSGSGSGSDFTLTINSVEPEDVGMYYCQNGHTFPLTFGAGTKLEIKR
Q: What does the source list for B6?
A: HI assay: positive number/total virus number (of 34 strains) [30]: 28; HI assay: positive number/total virus number (of 14 strains) [39]: 0
